The target in assay [1] is RBD-Fc (义翘神州，40592-V05H) (SARS-CoV-2) (UniProt P0DTC2).
Assay [2] has the same target. The source holds these as a separate data set.

Where two headings read alike, the source gives them in different places.

For the substance “hACE2-Fc融合蛋白 (人ACE2胞外区(ECD)与人IgG1的Fc片段的融合蛋白) (Fc fusion)”, the values for the half-inhibitory concentration (IC50) in assay [1] and in assay [2] were 5.02 nM and 7.6 nM, respectively.

For orientation: IC50 means the concentration at which inhibition is half-maximal.

For the origin of these results see patent publication CN114057887A.
